Data reported in paper PMC9441902.

Molecular target: LrsL (quorum quenching lactonase of Labrenzia sp. VG12), recombinant catalytic domain without the N-terminal 47 residues (Labrenzia sp. VG12)
Assay: SEC-MALS; Superdex 200 10/300; 5.5 mg/ml LrsL injected; 20 mM HEPES, pH 7.5, 200 mM NaCl, 1 mM TCEP, 0.01% NaN3

stoichiometry N: 2
Substance: LrsL (quorum quenching lactonase of Labrenzia sp. VG12), recombinant catalytic domain without the N-terminal 47 residues (enzyme)
